Source: publication PMC10978960, “Structure, function and substrate preferences of archaeal S-adenosyl-L-homocysteine hydrolases” (Communications Biology, 2024)

B1: S-adenosyl-L-homocysteine hydrolase from Mus musculus (enzyme)
chain: MSDKLPYKVADIGLAAWGRKALDIAENEMPGLMRMREMYSASKPLKGARIAGCLHMTVETAVLIETLVALGAEVRWSSCNIFSTQDHAAAAIAKAGIPVFAWKGETDEEYLWCIEQTLHFKDGPLNMILDDGGDLTNLIHTKYPQLLSGIRGISEETTTGVHNLYKMMSNGILKVPAINVNDSVTKSKFDNLYGCRESLIDGIKRATDVMIAGKVAVVAGYGDVGKGCAQALRGFGARVIITEIDPINALQAAMEGYEVTTMDEACKEGNIFVTTTGCVDIILGRHFEQMKDDAIVCNIGHFDVEIDVKWLNENAVEKVNIKPQVDRYWLKNGRRIILLAEGRLVNLGCAMGHPSFVMSNSFTNQVMAQIELWTHPDKYPVGVHFLPKKLDEAVAEAHLGKLNVKLTKLTEKQAQYLGMPINGPFKPDHYRY
notes: S-adenosyl-L-homocysteine hydrolase (SAHH, adenosylhomocysteinase) of Mus musculus; gene bought as a synthetic DNA string and cloned into pET28a(+); The tag counts as kept because protein concentration was determined with the molecular weight including the His6-tag and no cleavage step is described; also called MmSAHH; SAHH; source: E. coli BL21-Gold(DE3), purified (nickel-NTA, PD-10 desalting)
B2: S-adenosyl-L-homocysteine hydrolase from Methanococcus maripaludis (enzyme)
chain: MSNVKDMSLAPSGHLKMEWAKRHMPVLCRIAEEFKNDKPFEGLTIGMALHLEAKTAILAETLLEGGAKIVITGCNPLSTQDDVAAACVEKGMEVYAWRGETNEEYYENLNKVLDSNPDIIIDDGADLIFLIHTERTELIGKIMGGCEETTTGIIRLKSMAEEGALKFPVVNVNDAYTKHLFDNRYGTGQSAMDGIIRTTNLLIAGKNVVVGGYGWCGRGVASRAAGHGANVIITEVNPIRALEAKMDGFTVLKMEEAAKIGDIFVTTTGCKDILRMEHFLLMKDGAVLSNAGHFDNEINKNDLKELSKSVKEARFNIEEYDLGNKKIYLLGEGRLVNLACADGHPCEVMDMSFANQALSAKFIKENKGKLENEVYEIPYEQDFKIALLKLHSMGADIDELSPEQRKYLSDWKEGT
notes: S-adenosyl-L-homocysteine hydrolase (SAHH) of Methanococcus maripaludis; gene bought as a synthetic DNA string and cloned into pET28a(+); The tag counts as kept because protein concentration was determined with the molecular weight including the His6-tag and no cleavage step is described; also called MmaSAHH; SAHH; source: E. coli BL21-Gold(DE3), purified (nickel-NTA, PD-10 desalting)
B3: S-adenosyl-L-homocysteine hydrolase from Pyrococcus furiosus (enzyme)
chain: MDCGKDYCVKDLSLAEEGWKKIDWVSRFMPVLQYIKREFEEKKPFKGVRIAATLHLEMKTAFLLLTLKAGGAEVSAAASNPLSTQDDVVAALAKAGVKVYAIRGESREQYYEFMHKALDIRPNIIIDDGADMISLVHKERQEMLDEIWGGSEETTTGVIRLRAMEKAGILKFPVIAVNDSYMKYLFDNRYGTGQSTWDGIMRATNLLIAGKNVVVVGYGWCGRGIAMRARGLGATVIVVEVDPIKALEARMDGFLVMDMKEAAKIGDIFVTATGNIKCIRREHFELMKDGAIMANAGHFDVEIWKPDLEKLAVEINNPRPNVTEYKLKDGRRLYLLADGRLVNLVAADGHPAEIMDMSFALQAKAAEYIKDNHERLEPKVYILPREIDEMVARIKLESMGIKIEELTEEQKKYLESWEHGT
notes: S-adenosyl-L-homocysteine hydrolase (SAHH) of Pyrococcus furiosus; gene bought as a synthetic DNA string and cloned into pET28a(+); The tag counts as kept because protein concentration was determined with the molecular weight including the His6-tag and no cleavage step is described; One sample was heated at 95 °C for 15 min before crystallisation (8QNO); also called PfuSAHH; SAHH; source: E. coli …
B4: S-adenosyl-L-homocysteine hydrolase from Sulfolobus acidocaldarius (enzyme)
chain: MDYRVKDLSLAEQGRKQIEWAELHMPALMEIRKRFNAEKPLDGIRIGAVLHVTKETAVLVETLKAGGAEIALAGSNPLSTQDDVAAGLAKNGIHVYAWRGETEKDYYDNIREILKYEPHVIMDDGGDLHAYVHENNLTSKIVGGTEETTTGVIRLKAMEEEKVLKYPVIAVNNAFTKYLFDNRIGTGQSTIDGILRATNILIAGKVAVVIGYGWVGRGIASRFKGMGARVIVVESSPFRALEALMDGFDVMTMNRASEIGDIFVTATGNLNVVSRDHILRMKDGAVLANSGHFNVEIDVKGLKEISVETREVRQNLEEYKLRNGKRIYLLADGRLVNLVAAEGHPSEVMDLSFCNQALSVEHLIKNKGKLENKVYNVPIEIDEQVARLKLKALGIEIEELTIEQKEYIKQWKYGT
notes: S-adenosyl-L-homocysteine hydrolase (SAHH) of Sulfolobus acidocaldarius; gene bought as a synthetic DNA string and cloned into pET28a(+); The tag counts as kept because protein concentration was determined with the molecular weight including the His6-tag and no cleavage step is described; also called SacSAHH; SAHH; source: E. coli BL21-Gold(DE3), purified (nickel-NTA, PD-10 desalting)

Target: the molecule itself
Test: crystal structure; co-crystals of the purified enzyme with co-purified NAD+ and a nucleoside ligand (inosine, SIH or adenosine), sitting drop vapour diffusion at room temperature or 22 °C; tetramers built in the respective space groups and analysed with PDBePISA

Stoichiometry N, 4:
B1, B2, B3, B4
